The target of test [1] is AnxA2–HA (His6–AnxA2 fused to an HA tag, residues 1–339) (human, UniProt P07355 1-339). Nature of the test: […].
The target of test [2] is T1, NHERF2–VC (Na+/H+ exchanger regulatory factor 2, HA-tagged, fused to the C-terminal fragment of Venus), Q15599.
T1 chain: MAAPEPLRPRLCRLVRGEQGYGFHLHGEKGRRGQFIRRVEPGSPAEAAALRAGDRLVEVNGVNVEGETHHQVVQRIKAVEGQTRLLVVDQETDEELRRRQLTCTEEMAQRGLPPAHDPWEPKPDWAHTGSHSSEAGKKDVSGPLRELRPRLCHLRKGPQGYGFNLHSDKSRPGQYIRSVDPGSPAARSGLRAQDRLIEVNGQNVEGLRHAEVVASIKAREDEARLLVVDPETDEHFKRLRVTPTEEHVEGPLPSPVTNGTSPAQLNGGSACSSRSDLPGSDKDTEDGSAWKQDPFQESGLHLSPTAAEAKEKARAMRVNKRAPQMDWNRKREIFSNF
Description: split reporter. The settings on record: remark: other sources report otherwise.

In test [3] the target is T2, Tir-EPEC (residues 1–550), His6-tagged (enteropathogenic Escherichia coli (EPEC), UniProt B7UM99 1-550).
T2 sequence: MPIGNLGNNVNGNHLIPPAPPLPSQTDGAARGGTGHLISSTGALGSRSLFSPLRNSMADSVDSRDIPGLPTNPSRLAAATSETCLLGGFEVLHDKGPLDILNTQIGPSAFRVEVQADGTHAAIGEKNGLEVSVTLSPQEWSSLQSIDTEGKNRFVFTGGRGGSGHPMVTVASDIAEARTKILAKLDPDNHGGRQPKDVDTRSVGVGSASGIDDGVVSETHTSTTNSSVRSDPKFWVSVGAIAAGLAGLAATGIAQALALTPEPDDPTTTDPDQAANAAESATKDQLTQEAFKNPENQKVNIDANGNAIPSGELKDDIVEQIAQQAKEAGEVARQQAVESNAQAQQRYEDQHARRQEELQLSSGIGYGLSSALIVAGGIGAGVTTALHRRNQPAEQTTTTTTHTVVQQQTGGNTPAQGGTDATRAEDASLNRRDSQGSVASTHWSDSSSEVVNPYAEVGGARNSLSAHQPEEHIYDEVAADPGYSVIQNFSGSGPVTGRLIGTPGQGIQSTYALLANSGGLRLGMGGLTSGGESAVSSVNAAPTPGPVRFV
Nature of the test: […].

Test [4] has as its target T3, His6–Tir-EHEC (residues 1–558) (enterohaemorrhagic Escherichia coli …, UniProt Q7DB77 1-558).
T3 sequence: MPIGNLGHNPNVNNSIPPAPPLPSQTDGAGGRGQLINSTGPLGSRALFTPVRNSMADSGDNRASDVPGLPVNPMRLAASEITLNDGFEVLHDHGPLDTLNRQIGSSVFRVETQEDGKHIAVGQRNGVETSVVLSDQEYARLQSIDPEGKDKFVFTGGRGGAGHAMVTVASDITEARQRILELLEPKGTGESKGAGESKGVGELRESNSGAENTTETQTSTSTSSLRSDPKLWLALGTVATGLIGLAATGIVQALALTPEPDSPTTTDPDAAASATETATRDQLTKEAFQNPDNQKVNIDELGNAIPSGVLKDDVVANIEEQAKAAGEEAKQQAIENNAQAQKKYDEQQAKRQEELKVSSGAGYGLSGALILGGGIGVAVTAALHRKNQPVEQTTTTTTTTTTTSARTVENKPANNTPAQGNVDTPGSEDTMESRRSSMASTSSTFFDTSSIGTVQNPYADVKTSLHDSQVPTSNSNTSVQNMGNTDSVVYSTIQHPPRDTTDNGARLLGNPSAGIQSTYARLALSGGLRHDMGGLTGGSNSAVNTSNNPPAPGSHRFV
Description: […].

Chain of AnxA2–HA (His6–AnxA2 fused to an HA tag, residues 1–339) (P07355 whole entry, the tested form may be a part): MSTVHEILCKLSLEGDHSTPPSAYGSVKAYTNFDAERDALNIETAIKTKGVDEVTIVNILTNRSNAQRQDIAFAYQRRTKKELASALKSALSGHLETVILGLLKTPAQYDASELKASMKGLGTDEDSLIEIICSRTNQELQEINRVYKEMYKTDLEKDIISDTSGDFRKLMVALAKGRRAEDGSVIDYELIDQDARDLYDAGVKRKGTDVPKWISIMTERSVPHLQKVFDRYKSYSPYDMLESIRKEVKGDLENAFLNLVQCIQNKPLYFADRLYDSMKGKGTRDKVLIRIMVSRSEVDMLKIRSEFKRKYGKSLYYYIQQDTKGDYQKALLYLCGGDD

B1: TirC-EPEC (residues 369–550), His6-tagged (domain or fragment)
chain: SSALIVAGGIGAGVTTALHRRNQPAEQTTTTTTHTVVQQQTGGNTPAQGGTDATRAEDASLNRRDSQGSVASTHWSDSSSEVVNPYAEVGGARNSLSAHQPEEHIYDEVAADPGYSVIQNFSGSGPVTGRLIGTPGQGIQSTYALLANSGGLRLGMGGLTSGGESAVSSVNAAPTPGPVRFV
Turning to B1, the binding result in test [1] was “binds”.

B2: NHERF2–VC (Na+/H+ exchanger regulatory factor 2, HA-tagged, fused to the C-terminal fragment of Venus), Q15599 1-337 (natural protein)
chain: T1 chain
Take B2: the BiFC signal, percent of Venus fluorescence (% of Venus fluorescence) in test [2] stood at 75.

B3: TirN-EHEC (residues 1–237), His6-tagged (domain or fragment)
chain: MPIGNLGHNPNVNNSIPPAPPLPSQTDGAGGRGQLINSTGPLGSRALFTPVRNSMADSGDNRASDVPGLPVNPMRLAASEITLNDGFEVLHDHGPLDTLNRQIGSSVFRVETQEDGKHIAVGQRNGVETSVVLSDQEYARLQSIDPEGKDKFVFTGGRGGAGHAMVTVASDITEARQRILELLEPKGTGESKGAGESKGVGELRESNSGAENTTETQTSTSTSSLRSDPKLWLALGT
Regarding B3, the binding result in test [1] was “binds”.

B4: TirC-EHEC (residues 366–558), His6-tagged (domain or fragment)
chain: SGALILGGGIGVAVTAALHRKNQPVEQTTTTTTTTTTTSARTVENKPANNTPAQGNVDTPGSEDTMESRRSSMASTSSTFFDTSSIGTVQNPYADVKTSLHDSQVPTSNSNTSVQNMGNTDSVVYSTIQHPPRDTTDNGARLLGNPSAGIQSTYARLALSGGLRHDMGGLTGGSNSAVNTSNNPPAPGSHRFV
Consider B4, for which the binding result in test [1] was “binds”.

B5: TirN-EPEC (residues 1–240), His6-tagged (domain or fragment)
chain: MPIGNLGNNVNGNHLIPPAPPLPSQTDGAARGGTGHLISSTGALGSRSLFSPLRNSMADSVDSRDIPGLPTNPSRLAAATSETCLLGGFEVLHDKGPLDILNTQIGPSAFRVEVQADGTHAAIGEKNGLEVSVTLSPQEWSSLQSIDTEGKNRFVFTGGRGGSGHPMVTVASDIAEARTKILAKLDPDNHGGRQPKDVDTRSVGVGSASGIDDGVVSETHTSTTNSSVRSDPKFWVSVGA
For the molecule B5, the binding result in test [1] was “binds”.

B6: AnxA2-C (C-terminal region of AnxA2, amino acids 191–339), His6-tagged (domain or fragment)
chain: IDQDARDLYDAGVKRKGTDVPKWISIMTERSVPHLQKVFDRYKSYSPYDMLESIRKEVKGDLENAFLNLVQCIQNKPLYFADRLYDSMKGKGTRDKVLIRIMVSRSEVDMLKIRSEFKRKYGKSLYYYIQQDTKGDYQKALLYLCGGDD
Consider B6, for which the binding result in test [3] and in test [4] was “binds” throughout.

Values taken from PMC4568301 (The Biochemical journal, 2012).
